# Tested on: K4 kissing-loop RNA reporter
# Experiment: apparent KD of K4 kissing-loop reporter; higher = weaker reporter binding
# Conditions: Eterna round: R107
# Protocol: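 RNA-MaP round R107: designed RNA switches with theophylline, tryptophan, arginine or FMN aptamers are transcribed on-chip within common flanks. They are titrated with a labelled K4 kissing-loop RNA reporter in RNA-MaP buffer (100 mM Tris pH 7.5, 80 mM KCl, 4 mM MgCl2), without ligand or with the indicated ligand. Median apparent KD per design.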
# [1] = input ligand: theophylline 20 uM
# [2] = input ligand: tryptophan 2.4 mM
# 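Further: bound reporter read as fluorescence of individual clusters on recovered sequencing chips by microscopy, with normalized cluster intensities fitted with a binding model.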
Sequence,apparent KD of K4 kissing-loop reporter (input ligand: FMN 200 uM),apparent KD of K4 kissing-loop reporter (input ligand: arginine 13.2 mM),apparent KD of K4 kissing-loop reporter (input ligand: none),apparent KD of K4 kissing-loop reporter [1],apparent KD of K4 kissing-loop reporter [2]
UACAAUUUGGCGGCCGCCACUGACCAUAGCCUUCGAUGGCCAGUGAUGUUGGCCUCUGGCUCUAACAGGACCGGGCCAAAUUAUG [Maeste],313 nM,216 nM,271 nM,245 nM,117 nM
GCCGUAGAUGGAAGGAGCGAGUCCAAACCAUAUUGCUGAAAAUUCGAGUGAUGUUCGUAAGCUCAGGUAGGUCGCCAUCUACGGC,206 nM,184 nM,209 nM,161 nM,187 nM
AGGUCCGAGCCCGUAAGGGCUCGGACCUGUUAGGAUAUGACGUUAUUCAGAAGGGAUGGGUGGAGUGAUGUUCCACCCGCAAGGG [#2 Same State - FMN A Attempt #10 (HarryS)],98.8 nM,102 nM,93.2 nM,91.7 nM,95.7 nM
UUACCAAGUGAUGUUUGGAAAUAUCCUAGGCAGGAUAUGCGGAAACGCAGAAGGGCCACCUUAUAGUGAAGGAAACUUCGCUAUU [Ex FMN A 2],163 nM,124 nM,140 nM,141 nM,142 nM
CUCAGAAAGACUGUCCAAGUGAUGUUUGGACGAGGACCGGUACGGCCGCCACUCGCUGUUGCGAAUGUUAAGGUACGAGUCGCGG [theeternabot_exclusion_KL_Trp_A_30],84.8 nM,89.7 nM,89.1 nM,101 nM,91.7 nM
AGACUACCACACUGUCAAUAGACAGUGAGCUAGGAUAUGCUGAUAAGCAGAAGGAGUGAUGUUCCAAGGUAGUCAAUAAAAUAAU [FmnAX 13 G29+A66],209 nM,203 nM,221 nM,267 nM,209 nM
CUAUGGAAACAUAGGAAUCGGGAAACCGAUACCAGUAUGGAAACAUACCCUUGGCAGCGGAAUGAUUCAACGGAGUGAUGUUCCG [Theophylline A K4 20],395 nM,327 nM,399 nM,293 nM,321 nM
GAUUCAGUGAUGUUGGAAGGCGAGCGGGAUACCAGCCGAGACUCAGGCCCUUGGCAGCCCACAUAUCCCAGGUAGAUAGUCGAUC [Same State - Theophylline A (Freestyle 9)],185 nM,118 nM,170 nM,165 nM,160 nM
UUUGGUUUCUCGGCCGCCACUCGUUGUCUAUCGGCUUCAGGGAUAUAGUGAUGUUAUGUAUAGAAGAGGACCGGGAGAAGGUUCU [ExTryptoB.Dx],280 nM,267 nM,347 nM,307 nM,182 nM
AGUGCACUGUCAGGAUAUAUACAGUGAUGUUGUGUAUGUCAGCAAGUCAAAGACUUGCUGUUCUGUGUAGAAGGGACUGUGUACA [Omei KL FMN B Exc A v3],911 nM,457 nM,450 nM,467 nM,426 nM
AGAUUCGACACGGCCGCCACUCGUGGUGGAUUACCUAGUGUCGAAGUUGAGUGAUGUUCAACUACGAGGACCGGGUGUUGAGUCU [KL-XTryp-B7 #analogue],253 nM,161 nM,215 nM,211 nM,448 nM
CUAGCUAGCAUGGAAACAUGCUAGCUAGAUUAGGAUAUGACGUAAGUCAGAAGGGAUAAAUGGAGUGAUGUUCCGGACGCAAGUC [#2 Same State - FMN A Attempt #4 (HarryS)],255 nM,237 nM,247 nM,295 nM,186 nM
GGAUAGGAUAGAGGAUAUGGUAGUGAUGUUACCAAACUGGUUAAACAUGUCAGAAAACUGGCAUGACCAGAAGGUUGUCCUAUCG [FmnBX 27 U9+U75],80.5 nM,57.1 nM,70.5 nM,66.9 nM,61.5 nM
AGUGAUGUAUGGCGGUUUGUCACUUAAAAUCAGGAUAUAUAAACAAAUAGAAGGGAUGGCGGAGUGAUGUUCCGCCGGCCGCCAU [FMN A Exl V1],171 nM,145 nM,177 nM,179 nM,162 nM
UGUCAUUGGUCGGCCGCCACUUCAAAAGGUCAAAGACCAGAGUGAUGUUCUUCACGAAACGUGAGAAGGACCGGGACCGAUGACU [TrypBS 12 #SwitchBubble #K4Middle],226 nM,123 nM,191 nM,266 nM,638 nM
AAUUGAGUGACGGCCGCCACUAGAGUGAUUUUUUUGUUUGAGUGAUGUUUUGAUGUUUGAUGUUGUAGGACCGGGUUGAGUGAUG [vvrvmullin],377 nM,348 nM,386 nM,428 nM,291 nM
ACGUCCGGAUUGAUCGUGGGCAUGGUCGAUACCAGUAGUUUAAUCUACCCUUGGCAGCGACAUGAGUGAUGUUCAUGUGCGAUGA [KL-XTheo-A7 #analogue],185 nM,164 nM,173 nM,350 nM,185 nM
CUUAAGGAGUGUCGUGCCGGACACUGGGAAGGAGCGCAAUUCUUUGCAGGUAGGUCGCCCAGUGAUGUUGGGUGGCGCUGUCGAA [Laatonbi],190 nM,156 nM,149 nM,156 nM,128 nM
UGGGAUGGUUCGGCCGCCACUAUGGUGCAGUGAUGUUGCAUCGUAGUAAAUCAUUCCAUUUACCGUAGGACCGGGAACCUUACGC [Mavelege],108 nM,82.7 nM,94.9 nM,83.4 nM,86.2 nM
ACGGGCGGCUGAAGGAGCGGGCGGGCCCGAGUGAUGUUCGGGUGGGCCGUGAGGUCCGGAGCCCAGGUAGGUCGCGGUUCCGCCU [#2 Same State - Arginine B Attempt #14 (HarryS)],157 nM,119 nM,152 nM,197 nM,181 nM
AGACUACCACACUGUCAAUAGACAGUGGACUAGGAUAUGCUGAUAAGCAGAAGGAGUGAUGUUCCAAGGUAGUCAAUAAAAUAAU [FmnAX 13 G28+A66],294 nM,257 nM,309 nM,396 nM,279 nM
AUUCAUUUCAGAGGAUAUCGCUGGAGAGUGAUGUUCUCCCAUAGUCAGUGAUGUUGGCUAGCUAUGCGAGAAGGCUGUGGGUGGA [Same State FMN B GF 28],143 nM,396 nM,397 nM,356 nM,384 nM

Sequence,apparent KD of K4 kissing-loop reporter (input ligand: FMN 200 uM),apparent KD of K4 kissing-loop reporter (input ligand: arginine 13.2 mM),apparent KD of K4 kissing-loop reporter (input ligand: none),apparent KD of K4 kissing-loop reporter [1],apparent KD of K4 kissing-loop reporter [2]
AUUCAUGAGUGAUGUUCAUCGGCAGGAGAUACCAGCGAGUUAACCCGCCCUUGGCAGCUCAAGUAUAGGGACUCUGGCAUCGCCU [theeternabot_exclusion_KL_Theo_A_18],406 nM,374 nM,547 nM,405 nM,369 nM
CAUAUCAGAUAAGGAUAUAUGGCUCCUCGAGUCCAGUGAUGUUGGGCAACGUUUCAGUGGUGGAUUAUAGAAGGUAUUCACAGAC [theeternabot_sameState_KL_FMN_B_9],297 nM,250 nM,276 nM,272 nM,258 nM
UGUACCGAGUCAGGAUAUGGCGUCGAAAGACGAAUUCUAGUGAUGUUAGGGAUCUGCGAAAGCAGUCUAGAAGGGACUUGGUACU [FmnBS 26 U36+U68],356 nM,407 nM,508 nM,684 nM,512 nM
GCAGUGAUGUUGCGCAUGUACAGUGGAGUGCGAGGACCGGUACGGCCGCCACUCGUACAGAACAAGCUAAUAUAUGGAUAGGUGA [IX],418 nM,525 nM,543 nM,510 nM,306 nM
UUUGUAUAGGGAAGGAGCGUGAAUGAUAAUGAAUAUAGUGAUGUUAUAUAGAAGAAAGAAUCACAGGUAGGUCGCCCGGAGGAGG [SSArgB.I],198 nM,234 nM,1000 nM,456 nM,247 nM
AAGUGAUGUUGUAGUGAUGUUGUGAUGUUGCAGGAUAUAUAGUGAUGUAGAAGGGUAUGUGCAGUUUUCAUAUUUGAGUGUUGAU [mkkhmullin],85.2 nM,37.6 nM,67.1 nM,56.5 nM,64.2 nM
CAGUUCUAUUCCGGUAGUGAUGUUACCAAGCGAGGACCGGUACGGCCGCCACUCGAGUGACAGACGUACUGGUAUCACCCGCUUC,159 nM,172 nM,164 nM,186 nM,142 nM
ACACUUUACGUAGGAUAUGCGACGAGUGAUGUUCGUCAGGCGGCCUUAGAUUAAACAAGCCGCCUAGCAGAAGGACGGGCAGUGU [Qumatiri],133 nM,155 nM,201 nM,154 nM,159 nM
CUAACGGUACGAGUGAUGUUCAGCAAGGAUACCAGCGGACAGUCACGCCCUUGGCAGCCUAGUUUCUACCCGUCGGAAUUUCUUA [theeternabot_sameState_KL_Theo_A_2],623 nM,366 nM,599 nM,461 nM,527 nM
CAUACGCAUGGAGGAUAUGGGAUUACUCAUAUUACCCUGUAACAGGUAUCUCAGUGAUGUUGAGACUCAGAAGGCCAUGUGUAUG [Ex FMN B 23],615 nM,289 nM,348 nM,370 nM,344 nM
AGUGCCUGCCUUAGCCUUCCCAUCAACUUCCGAGGACCGGUACGGCCGCCACUCGGCCAUCGGGCUAGUGAUGUUACCUGGUGGA [theeternabot_sameState_KL_Trp_A_50],337 nM,302 nM,327 nM,320 nM,224 nM
CCUAUCUCAUACGAUACCAGUCUAUUGUUACGAGUGAUGUUCGAAUAUUUGCCAUUCAAUGACCCUUGGCAGCGUAUGGGAUAGG [Ex Theophylline B K4 10],502 nM,519 nM,525 nM,548 nM,486 nM
CCCGUGGGUUCGAGAGGGCUUGUGGGAAGUAAGGAUAUUUAGGGAGAAAGAAGGUACUAUAGAAUAUAGUGAUGUUAUAUAUGGG [#07 K4 FMN A Same State],402 nM,435 nM,454 nM,347 nM,203 nM
UGAUAGGACAGAAGGAGCGGUAGUGAUGUUACCAAAAGGAUAAGGUGUCAAAAGACACCCUGCCAGGUAGGUCGCUGUCCUAUCU,102 nM,100 nM,107 nM,98.8 nM,87 nM
UGUUUUUACUGAAGGAGCGGCAAUUGAUACGUAGAUAUAGUGAUGUUAUAUAAGAUAGAGAGCCAGGUAGGUCGCAGAAUGAAUC [ExArgB.aD],209 nM,188 nM,190 nM,242 nM,156 nM
UAAUUUAUGUCUUUAAUUUAAUAAUCAGAUACCAGUGAUUUAUGACACCCUUGGCAGCUGUAUUGAGUGAUGUUCUUAUACUUAA [JR_Nu_ExcTheophyA_Sub021],131 nM,169 nM,171 nM,212 nM,101 nM
UUUAAACAUAGUGAUGUUAUGUAACAAUGACGAGGACCGGUACGGCCGCCACUCGAGAGAGAUGAUGGUAAAAUAAAUAAUUUUC [#10 K4 Tryptophan A Same State],105 nM,124 nM,107 nM,113 nM,90.6 nM
AUUAAUUUCAGAGGAUAUCGUUAUUUUUUAUAUUUUAUUCAUUUAUGCAGUGAUGUUGCUAUUAAUCGAGAAGGCUGAUUUAUAA [JR_ExcFMNB_Sub003],85.5 nM,114 nM,47.1 nM,120 nM,49.4 nM
UACAUAUAGUUAUUUCUACAUUUAUUUAGUCAGGAUAUCGAUUAGACGAGAAGGGACAAUAUCAAGUGAUGUUUGAUAAUUCAAA [JR_ExcFMNA_Sub011],75.7 nM,111 nM,68.4 nM,100 nM,53.2 nM
GUAGGAUGGUGCGAUACCAGACCUGCAGUGAUGUUGCGCCAUAGUGAGUGAUGUUCACCGGUCCCUUGGCAGCGCGUCCAUAAAG [Same State Theophylline B GF 17],1060 nM,719 nM,1250 nM,1160 nM,882 nM
AGCGAUGUUUUCUCUAGGAGUGAUGUUUUUCGAGGACCGGUACGGCCGCCACUCGGACGACGAGUGUGGUAGUGGGCUGUUGACU [ffmullin],483 nM,296 nM,441 nM,231 nM,493 nM
